1 molecule from paper PMC3634016 (2013) can be followed below.

In general, Kd refers to a measure of binding affinity in units of concentration. A lower Kd goes with a tighter complex.

The assay has as its target Ca^2+-CaM pre-bound to the mammalian Cav1.2 IQ peptide (rat | human, UniProt P0DP29 1-149). Kind of assay: ITC; Ca2+; CaM pre-bound to Cav1.2 IQ.

SWQAAIDAARQAKLMGS [mammalian NSCaTE_(Cav1.2) peptide] returned a Kd of 1800 nM. This lies in the single-digit micromolar range.
